From patent US20250353926A1

Biological target: PSMA expressed on target cells (PC3pip cells, high density; 22Rv1 cells, low density) (UniProt Q04609)
Test: cell-based or functional assay

Chain of PSMA expressed on target cells (PC3pip cells, high density; 22Rv1 cells, low density) (Q04609 whole entry): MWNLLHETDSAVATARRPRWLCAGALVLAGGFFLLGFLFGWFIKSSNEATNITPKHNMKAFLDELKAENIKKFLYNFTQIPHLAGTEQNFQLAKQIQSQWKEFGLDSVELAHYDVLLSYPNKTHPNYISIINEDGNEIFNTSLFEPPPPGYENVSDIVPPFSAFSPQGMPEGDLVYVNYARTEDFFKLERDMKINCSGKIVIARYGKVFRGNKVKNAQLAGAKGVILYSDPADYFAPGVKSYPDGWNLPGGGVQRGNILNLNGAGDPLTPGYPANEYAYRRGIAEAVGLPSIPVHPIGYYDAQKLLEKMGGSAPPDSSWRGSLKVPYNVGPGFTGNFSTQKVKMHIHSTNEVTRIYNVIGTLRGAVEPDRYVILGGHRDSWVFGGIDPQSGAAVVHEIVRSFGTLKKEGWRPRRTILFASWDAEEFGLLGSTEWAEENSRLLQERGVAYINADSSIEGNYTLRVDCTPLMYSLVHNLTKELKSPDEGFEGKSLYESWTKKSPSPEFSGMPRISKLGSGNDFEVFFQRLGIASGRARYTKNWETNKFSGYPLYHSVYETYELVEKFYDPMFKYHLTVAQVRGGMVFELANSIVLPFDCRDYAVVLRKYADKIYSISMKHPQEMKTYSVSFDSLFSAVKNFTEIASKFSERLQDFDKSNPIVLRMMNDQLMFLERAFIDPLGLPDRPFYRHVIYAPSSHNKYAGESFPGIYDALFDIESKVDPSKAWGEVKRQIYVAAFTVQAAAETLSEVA

EC50; ADCC luciferase reporter assay (Jurkat CD16a V158 reporter cells), PC3pip 24 h continuous: 0.16 nM
EC50; ADCC reporter assay, 22Rv1 4 h washout, 24 h endpoint: > 500 nM
EC50; ADCC reporter assay, PC3pip 4 h washout, 24 h endpoint: 0.044 nM
Substance: monoclonal anti-PSMA antibody, J591
